Test results from article doi:10.1101/607101 (bioRxiv, 2019).

Target: the molecule itself
Test: crystal structure

B1: Kitasatospora setae enoyl-CoA carboxylase/reductase (ECR), wild type (enzyme)
chain: MQEILDAILSGDAASADYAALALPESYRAVTLHKGEERMFDGLASRDKDPRKSLHLDDVPLPELGPGEALVAVMASSVNYNTVWSSIFEPVSTFGFLERYGRLSPLTARHDLPYHVLGSDLAGVVLRTGAGVNAWKPGDEVVAHCLSVELESPDGHNDTMMDPEQRIWGFETNFGGLAQLALVKTNQLLPKPKHLTWEEAASPGLVNSTAYRQLVSRNGAGLKQGDNVLIWGASGGLGSYATQYALAGGATPICVVSSPRKADICRAMGAEAIIDRSAEGYRFWKDEHHQDPREWKRLGGKIREFTGGEDVDIVFEHPGRETFGASVYVTRKGGTIVTCASTSGYMHQYDNRYLWMSLKRIVGSHFANYREAFEANRLVAKGKIHPTLSKVYALEETGQAALDVHHNKHQGKVGVLCLAPREGLGVTDPELRSKHLTKINAFRNV
  stoichiometry N: 4
